B1: Hab009VL2aVH1-hFc (scFv, part only; not given: VL-VH linker and human IgG1 Fc, V domains shown, not shown: another chain or arm of the molecule; a dimerising Fc or GST; small tags and cut ends)
VL: DIVMTQSPLSLPVTPGEPASISCRASQTISDYLHWYLQKPGQSPRLLIKYASQSISGVPDRFSGSGSGTDFTLKISRVEAEDVGVYYCQQGHSFPLTFGQGTKLEIK
VH: EVQLVQSGAEVKKPGASVKVSCKASGYTFTSYWMHWVRQAPGQRLEWMGTIYPGNSDTRYNQKFKDRVTITADTSASTAYMELSSLRSEDTAVYYCTRSYDYGDLDYWGQGTTVTVSS
B2: Hab015VL4VH1a-hFc (scFv, part only; not given: scFv linker and human IgG1 Fc, V domains shown, not shown: another chain or arm of the molecule; a dimerising Fc or GST; small tags and cut ends)
VL: NIVLTQSPATLSLSPGERATLSCKASENVGTYVSWFQQKPGQSPRLLIYGASNRYTGIPARFSGSGSGTDFTLTISSLEPEDFAVYYCGQFYSFPSTFGGGTKVEIK
VH: EVQLVESGGGLVKPGGSLRLSCAASGITFSNFWMNWVRQAPGKGLEWVGQIRLKSDDYATHYAESVKGRFTISREDSKNTVYLQMNSLKTEDTAVYYCTTGYYFDYWGQGTTVTVSS

Each binder was assayed against monkey DLL3 on CHO-K1-cyno DLL3 cells (cynomolgus monkey) (assay: FACS, CHO-K1-cyno DLL3 cells, 4 nM antibody).
Sequence of monkey DLL3 on CHO-K1-cyno DLL3 cells (cynomolgus monkey) (chain, as listed by the source limits assumed): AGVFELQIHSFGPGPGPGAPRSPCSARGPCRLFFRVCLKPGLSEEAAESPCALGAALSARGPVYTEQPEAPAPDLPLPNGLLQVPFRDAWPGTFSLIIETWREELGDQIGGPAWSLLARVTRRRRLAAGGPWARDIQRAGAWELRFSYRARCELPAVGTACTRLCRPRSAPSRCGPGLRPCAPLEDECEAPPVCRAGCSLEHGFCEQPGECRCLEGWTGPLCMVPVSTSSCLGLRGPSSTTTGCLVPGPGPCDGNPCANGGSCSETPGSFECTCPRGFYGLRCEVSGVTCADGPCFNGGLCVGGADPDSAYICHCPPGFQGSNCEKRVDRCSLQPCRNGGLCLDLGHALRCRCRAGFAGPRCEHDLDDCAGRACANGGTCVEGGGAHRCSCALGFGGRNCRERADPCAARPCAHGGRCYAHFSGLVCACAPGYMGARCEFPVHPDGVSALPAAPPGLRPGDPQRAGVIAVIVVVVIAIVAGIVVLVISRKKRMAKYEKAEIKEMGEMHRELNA

| MFI | Binder |
| --- | --- |
| 27600 MFI | B1 |
| 5910 MFI | B2 |

The binders below were run against DLL3 endogenously expressed on NCI-H82 cells (UniProt Q9NYJ7) (assay: FACS on NCI-H82 cells; antibody 4 nM).
Sequence of DLL3 endogenously expressed on NCI-H82 cells (Q9NYJ7 27-618): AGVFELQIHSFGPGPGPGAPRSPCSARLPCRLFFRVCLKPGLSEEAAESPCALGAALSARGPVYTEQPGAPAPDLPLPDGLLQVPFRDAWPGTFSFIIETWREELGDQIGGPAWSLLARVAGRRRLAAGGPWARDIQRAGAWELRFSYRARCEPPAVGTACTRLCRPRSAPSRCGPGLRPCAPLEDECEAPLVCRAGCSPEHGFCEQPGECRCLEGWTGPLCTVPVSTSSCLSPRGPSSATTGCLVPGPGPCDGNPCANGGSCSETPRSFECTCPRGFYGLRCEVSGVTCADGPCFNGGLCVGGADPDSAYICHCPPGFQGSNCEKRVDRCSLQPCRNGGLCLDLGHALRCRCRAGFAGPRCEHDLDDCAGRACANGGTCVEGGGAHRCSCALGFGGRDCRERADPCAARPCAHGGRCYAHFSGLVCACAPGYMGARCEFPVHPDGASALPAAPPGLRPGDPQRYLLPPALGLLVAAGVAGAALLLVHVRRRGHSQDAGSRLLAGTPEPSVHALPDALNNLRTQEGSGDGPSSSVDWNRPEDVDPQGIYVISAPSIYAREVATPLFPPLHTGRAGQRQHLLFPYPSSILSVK

| MFI | Binder |
| --- | --- |
| 1060 | B2 |

These binders were tested against monkey DLL3 on CHO-K1-cyno DLL3 cells (cynomolgus monkey) (assay: FACS, CHO-K1-cyno DLL3 cells, 0.16 nM antibody).

| MFI | Binder |
| --- | --- |
| 13700 MFI | B1 |
| 1240 MFI | B2 |

What follows are binders tested against DLL3 endogenously expressed on NCI-H82 cells (UniProt Q9NYJ7) (assay: FACS on NCI-H82 cells; antibody 0.00128 nM).

| MFI | Binder |
| --- | --- |
| 118 | B2 |

These binders were tested against mouse DLL3 on CHO-K1-mDLL3 cells (mouse) (UniProt O88516) (assay: FACS, CHO-K1-mDLL3 cells, 0.16 nM antibody).
Sequence of mouse DLL3 on CHO-K1-mDLL3 cells (mouse) (O88516 other isoform, or with tags, fused parts or gaps limits assumed): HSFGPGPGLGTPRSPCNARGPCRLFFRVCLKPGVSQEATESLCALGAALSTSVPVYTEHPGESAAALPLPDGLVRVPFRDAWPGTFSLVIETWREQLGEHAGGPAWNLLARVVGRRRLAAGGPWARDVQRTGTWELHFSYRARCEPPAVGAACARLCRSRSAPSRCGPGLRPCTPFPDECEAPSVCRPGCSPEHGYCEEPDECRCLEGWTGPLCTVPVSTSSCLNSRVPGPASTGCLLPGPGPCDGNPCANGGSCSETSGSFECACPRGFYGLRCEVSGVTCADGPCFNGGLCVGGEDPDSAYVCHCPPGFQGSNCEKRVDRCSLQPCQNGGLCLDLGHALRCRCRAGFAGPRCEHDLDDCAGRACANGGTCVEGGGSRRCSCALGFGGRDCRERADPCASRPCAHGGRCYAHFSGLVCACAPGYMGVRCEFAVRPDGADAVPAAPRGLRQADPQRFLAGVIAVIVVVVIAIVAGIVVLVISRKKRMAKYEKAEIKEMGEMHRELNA

| MFI | Binder |
| --- | --- |
| 300 MFI | B1 |
| 339 MFI | B2 |

These binders were tested against human DLL3 protein expressed on CHO-K1 recombinant cells (human DLL3 extracellular segment fused to EpCAM transmembrane and intracellular regions) (human) (UniProt Q9NYJ7) (assay: FACS, CHO-K1 hDLL3 cells, 0.032 nM antibody).
Sequence of human DLL3 protein expressed on CHO-K1 recombinant cells (human DLL3 extracellular segment fused to EpCAM transmembrane and intracellular regions) (human) (Q9NYJ7 other isoform, or with tags, fused parts or gaps limits assumed): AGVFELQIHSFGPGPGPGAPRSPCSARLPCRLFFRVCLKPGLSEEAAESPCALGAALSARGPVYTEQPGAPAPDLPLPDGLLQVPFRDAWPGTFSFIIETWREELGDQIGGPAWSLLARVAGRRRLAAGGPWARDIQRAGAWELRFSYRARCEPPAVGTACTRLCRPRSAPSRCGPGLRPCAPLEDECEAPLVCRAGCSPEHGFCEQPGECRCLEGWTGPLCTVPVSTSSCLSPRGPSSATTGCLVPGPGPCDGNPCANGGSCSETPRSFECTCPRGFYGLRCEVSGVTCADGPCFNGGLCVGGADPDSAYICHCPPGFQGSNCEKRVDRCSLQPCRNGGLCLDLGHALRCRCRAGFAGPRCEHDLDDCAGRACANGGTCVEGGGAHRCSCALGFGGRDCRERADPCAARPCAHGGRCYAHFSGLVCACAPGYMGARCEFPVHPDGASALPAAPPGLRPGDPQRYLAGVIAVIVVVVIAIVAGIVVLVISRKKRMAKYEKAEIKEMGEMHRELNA

| MFI | Binder |
| --- | --- |
| 1610 MFI | B1 |
| 294 MFI | B2 |

The binders below were run against human DLL3 protein expressed on CHO-K1 recombinant cells (human DLL3 extracellular segment fused to EpCAM transmembrane and intracellular regions) (human) (UniProt Q9NYJ7) (assay: FACS, CHO-K1 hDLL3 cells, 4 nM antibody).

| MFI | Binder |
| --- | --- |
| 12700 MFI | B1 |
| 7920 MFI | B2 |

The binders below were run against monkey DLL3 on CHO-K1-cyno DLL3 cells (cynomolgus monkey) (assay: FACS, CHO-K1-cyno DLL3 cells, 0.032 nM antibody).

| MFI | Binder |
| --- | --- |
| 5450 MFI | B1 |
| 399 MFI | B2 |

What follows are binders tested against mouse DLL3 on CHO-K1-mDLL3 cells (mouse) (UniProt O88516) (assay: FACS, CHO-K1-mDLL3 cells, 0.00128 nM antibody).

| MFI | Binder |
| --- | --- |
| 172 MFI | B1 |
| 117 MFI | B2 |

What follows are binders tested against mouse DLL3 on CHO-K1-mDLL3 cells (mouse) (UniProt O88516) (assay: FACS, CHO-K1-mDLL3 cells, 0.032 nM antibody).

| MFI | Binder |
| --- | --- |
| 272 MFI | B1 |
| 172 MFI | B2 |

These binders were tested against DLL3 endogenously expressed on NCI-H82 cells (UniProt Q9NYJ7) (assay: FACS on NCI-H82 cells; antibody 0.8 nM).

| MFI | Binder |
| --- | --- |
| 993 | B2 |

The binders below were run against DLL3 endogenously expressed on NCI-H82 cells (UniProt Q9NYJ7) (assay: FACS on NCI-H82 cells; antibody 0.16 nM).

| MFI | Binder |
| --- | --- |
| 489 | B2 |

What follows are binders tested against monkey DLL3 on CHO-K1-cyno DLL3 cells (cynomolgus monkey) (assay: FACS, CHO-K1-cyno DLL3 cells, 0.00128 nM antibody).

| MFI | Binder |
| --- | --- |
| 1340 MFI | B1 |
| 123 MFI | B2 |

The binders below were run against DLL3 endogenously expressed on NCI-H82 cells (UniProt Q9NYJ7) (assay: FACS on NCI-H82 cells; antibody 20 nM).

| MFI | Binder |
| --- | --- |
| 1200 | B2 |

What follows are binders tested against human DLL3 protein expressed on CHO-K1 recombinant cells (human DLL3 extracellular segment fused to EpCAM transmembrane and intracellular regions) (human) (UniProt Q9NYJ7) (assay: FACS, CHO-K1 hDLL3 cells, 0.00128 nM antibody).

| MFI | Binder |
| --- | --- |
| 210 MFI | B1 |
| 122 MFI | B2 |

What follows are binders tested against mouse DLL3 on CHO-K1-mDLL3 cells (mouse) (UniProt O88516) (assay: FACS, CHO-K1-mDLL3 cells, 0.8 nM antibody).

| MFI | Binder |
| --- | --- |
| 338 MFI | B1 |
| 779 MFI | B2 |

These binders were tested against DLL3 endogenously expressed on NCI-H82 cells (UniProt Q9NYJ7) (assay: FACS on NCI-H82 cells; antibody 0.032 nM).

| MFI | Binder |
| --- | --- |
| 213 | B2 |

Each binder was assayed against human DLL3 protein (extracellular segment, His tag) (human) (UniProt Q9NYJ7) (assay: SPR (Biacore 8K), antibody captured on Protein A chip, DLL3 antigen in solution, 1:1 Langmuir fit).
Sequence of human DLL3 protein (extracellular segment, His tag) (human) (Q9NYJ7 27-492): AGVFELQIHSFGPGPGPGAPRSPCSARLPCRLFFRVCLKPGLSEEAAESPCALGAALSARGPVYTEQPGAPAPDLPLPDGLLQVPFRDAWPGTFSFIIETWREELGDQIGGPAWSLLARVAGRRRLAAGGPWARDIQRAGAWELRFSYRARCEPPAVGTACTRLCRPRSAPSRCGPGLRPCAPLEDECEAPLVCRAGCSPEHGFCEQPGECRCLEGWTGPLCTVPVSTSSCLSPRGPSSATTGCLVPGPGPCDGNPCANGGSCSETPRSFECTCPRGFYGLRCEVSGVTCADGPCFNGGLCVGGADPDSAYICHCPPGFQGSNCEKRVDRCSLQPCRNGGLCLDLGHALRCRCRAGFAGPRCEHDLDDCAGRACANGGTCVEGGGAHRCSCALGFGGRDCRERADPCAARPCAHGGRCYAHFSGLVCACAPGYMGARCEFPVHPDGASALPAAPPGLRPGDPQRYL

| Kd | koff | kon | Binder |
| --- | --- | --- | --- |
| 328 pM | 0.0019 s⁻¹ | 5.79e+06 M⁻¹ s⁻¹ | B1 |

The binders below were run against monkey DLL3 on CHO-K1-cyno DLL3 cells (cynomolgus monkey) (assay: FACS, CHO-K1-cyno DLL3 cells, 100 nM antibody).

| MFI | Binder |
| --- | --- |
| 28400 MFI | B1 |
| 7590 MFI | B2 |

What follows are binders tested against human DLL3 protein expressed on CHO-K1 recombinant cells (human DLL3 extracellular segment fused to EpCAM transmembrane and intracellular regions) (human) (UniProt Q9NYJ7) (assay: FACS, CHO-K1 hDLL3 cells, 0.0064 nM antibody).

| MFI | Binder |
| --- | --- |
| 476 MFI | B1 |
| 152 MFI | B2 |

Each binder was assayed against human DLL1 protein (Acro, Cat. No. DL1-H52H8) (human) (UniProt O00548) (assay: ELISA, coated hDLL1; maximum over 0.1, 1, 10, 100 nM antibody).
Sequence of human DLL1 protein (Acro, Cat. No. DL1-H52H8) (human) (O00548 18-540 limits assumed): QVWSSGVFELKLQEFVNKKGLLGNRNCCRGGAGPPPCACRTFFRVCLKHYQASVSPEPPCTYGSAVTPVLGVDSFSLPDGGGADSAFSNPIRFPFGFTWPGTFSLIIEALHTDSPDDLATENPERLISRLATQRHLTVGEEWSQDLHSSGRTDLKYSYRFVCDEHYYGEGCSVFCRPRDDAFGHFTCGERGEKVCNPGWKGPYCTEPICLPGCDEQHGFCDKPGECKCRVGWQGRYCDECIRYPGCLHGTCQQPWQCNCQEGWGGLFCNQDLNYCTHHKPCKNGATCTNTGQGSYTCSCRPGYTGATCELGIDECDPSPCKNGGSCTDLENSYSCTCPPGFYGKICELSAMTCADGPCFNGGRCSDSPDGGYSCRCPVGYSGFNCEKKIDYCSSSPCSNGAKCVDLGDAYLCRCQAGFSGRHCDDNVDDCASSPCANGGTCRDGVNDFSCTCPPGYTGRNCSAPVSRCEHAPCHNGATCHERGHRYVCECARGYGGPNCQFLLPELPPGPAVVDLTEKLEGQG

| Emax of OD450 nm binding value | Binder |
| --- | --- |
| 0.07 OD450 nm | B1 |
| 0.44 OD450 nm | B2 |

The binders below were run against human DLL3 protein expressed on CHO-K1 recombinant cells (human DLL3 extracellular segment fused to EpCAM transmembrane and intracellular regions) (human) (UniProt Q9NYJ7) (assay: FACS, CHO-K1 hDLL3 cells, 0.16 nM antibody).

| MFI | Binder |
| --- | --- |
| 5930 MFI | B1 |
| 941 MFI | B2 |

The binders below were run against mouse DLL3 on CHO-K1-mDLL3 cells (mouse) (UniProt O88516) (assay: FACS, CHO-K1-mDLL3 cells, 100 nM antibody).

| MFI | Binder |
| --- | --- |
| 438 MFI | B1 |
| 1450 MFI | B2 |

These binders were tested against human delta-like ligand 3 (DLL3) on SHP77 cells (human) (UniProt Q9NYJ7) (assay: FACS on SHP77 cells).
Sequence of human delta-like ligand 3 (DLL3) on SHP77 cells (human) (Q9NYJ7 27-618, stated change not applied): as the sequence (Q9NYJ7 27-618) above

| MFI at 0.00128 nM | MFI at 0.0064 nM | MFI at 0.032 nM | MFI at 0.16 nM | MFI at 0.8 nM | MFI at 4 nM | MFI at 20 nM | MFI at 100 nM | Binder |
| --- | --- | --- | --- | --- | --- | --- | --- | --- |
| 108 MFI | 128 MFI | 201 MFI | 432 MFI | 683 MFI | 784 MFI | 825 MFI | 929 MFI | B1 |
| 99 MFI | 112 MFI | 174 MFI | 385 MFI | 730 MFI | 762 MFI | 962 MFI | 1240 MFI | B2 |

What follows are binders tested against mouse DLL3 on CHO-K1-mDLL3 cells (mouse) (UniProt O88516) (assay: FACS, CHO-K1-mDLL3 cells, 0.0064 nM antibody).

| MFI | Binder |
| --- | --- |
| 238 MFI | B1 |
| 123 MFI | B2 |

Each binder was assayed against monkey DLL3 on CHO-K1-cyno DLL3 cells (cynomolgus monkey) (assay: FACS, CHO-K1-cyno DLL3 cells, 0.0064 nM antibody).

| MFI | Binder |
| --- | --- |
| 3160 MFI | B1 |
| 168 MFI | B2 |

The binders below were run against DLL3 endogenously expressed on NCI-H82 cells (UniProt Q9NYJ7) (assay: FACS on NCI-H82 cells; antibody 100 nM).

| MFI | Binder |
| --- | --- |
| 1520 | B2 |

These binders were tested against human DLL4 protein (Acro, Cat. No. DL4-H5227) (human) (UniProt Q9NR61) (assay: ELISA, coated hDLL4; maximum over 0.1, 1, 10, 100 nM antibody).
Sequence of human DLL4 protein (Acro, Cat. No. DL4-H5227) (human) (Q9NR61 27-524 limits assumed): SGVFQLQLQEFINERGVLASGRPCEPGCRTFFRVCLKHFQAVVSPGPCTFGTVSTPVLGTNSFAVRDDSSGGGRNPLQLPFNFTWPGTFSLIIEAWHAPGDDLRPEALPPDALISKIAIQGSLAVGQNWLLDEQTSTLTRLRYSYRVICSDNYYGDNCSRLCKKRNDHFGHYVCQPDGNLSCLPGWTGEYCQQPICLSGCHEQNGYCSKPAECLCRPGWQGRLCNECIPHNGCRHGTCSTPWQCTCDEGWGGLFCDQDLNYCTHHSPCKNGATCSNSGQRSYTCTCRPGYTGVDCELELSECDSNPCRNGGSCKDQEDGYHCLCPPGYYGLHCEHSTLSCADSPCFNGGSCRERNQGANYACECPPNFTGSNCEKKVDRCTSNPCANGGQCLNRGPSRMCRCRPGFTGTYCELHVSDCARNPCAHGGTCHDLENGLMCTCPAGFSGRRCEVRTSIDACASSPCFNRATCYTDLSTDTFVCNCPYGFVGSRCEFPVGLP

| Emax of OD450 nm binding value | Binder |
| --- | --- |
| 0.06 OD450 nm | B1 |
| 0.65 OD450 nm | B2 |

Each binder was assayed against mouse DLL3 on CHO-K1-mDLL3 cells (mouse) (UniProt O88516) (assay: FACS, CHO-K1-mDLL3 cells, 4 nM antibody).

| MFI | Binder |
| --- | --- |
| 358 MFI | B1 |
| 1040 MFI | B2 |

What follows are binders tested against monkey DLL3 on CHO-K1-cyno DLL3 cells (cynomolgus monkey) (assay: FACS, CHO-K1-cyno DLL3 cells, 0.8 nM antibody).

| MFI | Binder |
| --- | --- |
| 24300 MFI | B1 |
| 4470 MFI | B2 |

These binders were tested against human DLL3 protein expressed on CHO-K1 recombinant cells (human DLL3 extracellular segment fused to EpCAM transmembrane and intracellular regions) (human) (UniProt Q9NYJ7) (assay: FACS, CHO-K1 hDLL3 cells, 20 nM antibody).

| MFI | Binder |
| --- | --- |
| 12600 MFI | B1 |
| 10600 MFI | B2 |

What follows are binders tested against DLL3 endogenously expressed on NCI-H82 cells (UniProt Q9NYJ7) (assay: FACS on NCI-H82 cells; antibody 0.0064 nM).

| MFI | Binder |
| --- | --- |
| 137 | B2 |

Each binder was assayed against human DLL3 protein expressed on CHO-K1 recombinant cells (human DLL3 extracellular segment fused to EpCAM transmembrane and intracellular regions) (human) (UniProt Q9NYJ7) (assay: FACS, CHO-K1 hDLL3 cells, 0.8 nM antibody).

| MFI | Binder |
| --- | --- |
| 12000 MFI | B1 |
| 5070 MFI | B2 |

Each binder was assayed against mouse DLL3 on CHO-K1-mDLL3 cells (mouse) (UniProt O88516) (assay: FACS, CHO-K1-mDLL3 cells, 20 nM antibody).

| MFI | Binder |
| --- | --- |
| 398 MFI | B1 |
| 1150 MFI | B2 |

Each binder was assayed against human DLL3 protein expressed on CHO-K1 recombinant cells (human DLL3 extracellular segment fused to EpCAM transmembrane and intracellular regions) (human) (UniProt Q9NYJ7) (assay: FACS, CHO-K1 hDLL3 cells, 100 nM antibody).

| MFI | Binder |
| --- | --- |
| 13100 MFI | B1 |
| 11400 MFI | B2 |

Each binder was assayed against monkey DLL3 on CHO-K1-cyno DLL3 cells (cynomolgus monkey) (assay: FACS, CHO-K1-cyno DLL3 cells, 20 nM antibody).

| MFI | Binder |
| --- | --- |
| 28200 MFI | B1 |
| 6720 MFI | B2 |

Source: patent EP4786492A1
